The values that follow come from article doi:10.1101/366336.

One series concerns the target T1, hClp1 (human) (UniProt Q92989).
T1 sequence: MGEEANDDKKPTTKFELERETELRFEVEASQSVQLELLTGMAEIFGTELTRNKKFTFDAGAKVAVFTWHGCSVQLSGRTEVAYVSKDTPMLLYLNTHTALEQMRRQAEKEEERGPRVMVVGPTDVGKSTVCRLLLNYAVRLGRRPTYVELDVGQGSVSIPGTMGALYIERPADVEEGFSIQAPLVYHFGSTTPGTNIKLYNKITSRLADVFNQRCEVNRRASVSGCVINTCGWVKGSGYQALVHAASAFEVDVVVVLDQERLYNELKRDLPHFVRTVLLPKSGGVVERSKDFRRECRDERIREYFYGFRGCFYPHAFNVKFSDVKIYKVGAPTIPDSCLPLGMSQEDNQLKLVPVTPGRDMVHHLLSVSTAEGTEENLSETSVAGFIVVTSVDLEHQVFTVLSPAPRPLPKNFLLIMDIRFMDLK
The experiment in a line: filter binding. To be noted: cap analog.

The target in series [1] is hPcf11 (in CF II);hClp1 (human;human) (UniProt O94913+Q92989). Kind of series: filter binding. To be noted: cap analog.
hPcf11 (in CF II);hClp1 (human;human), sequence (O94913 whole entry, one chain of several): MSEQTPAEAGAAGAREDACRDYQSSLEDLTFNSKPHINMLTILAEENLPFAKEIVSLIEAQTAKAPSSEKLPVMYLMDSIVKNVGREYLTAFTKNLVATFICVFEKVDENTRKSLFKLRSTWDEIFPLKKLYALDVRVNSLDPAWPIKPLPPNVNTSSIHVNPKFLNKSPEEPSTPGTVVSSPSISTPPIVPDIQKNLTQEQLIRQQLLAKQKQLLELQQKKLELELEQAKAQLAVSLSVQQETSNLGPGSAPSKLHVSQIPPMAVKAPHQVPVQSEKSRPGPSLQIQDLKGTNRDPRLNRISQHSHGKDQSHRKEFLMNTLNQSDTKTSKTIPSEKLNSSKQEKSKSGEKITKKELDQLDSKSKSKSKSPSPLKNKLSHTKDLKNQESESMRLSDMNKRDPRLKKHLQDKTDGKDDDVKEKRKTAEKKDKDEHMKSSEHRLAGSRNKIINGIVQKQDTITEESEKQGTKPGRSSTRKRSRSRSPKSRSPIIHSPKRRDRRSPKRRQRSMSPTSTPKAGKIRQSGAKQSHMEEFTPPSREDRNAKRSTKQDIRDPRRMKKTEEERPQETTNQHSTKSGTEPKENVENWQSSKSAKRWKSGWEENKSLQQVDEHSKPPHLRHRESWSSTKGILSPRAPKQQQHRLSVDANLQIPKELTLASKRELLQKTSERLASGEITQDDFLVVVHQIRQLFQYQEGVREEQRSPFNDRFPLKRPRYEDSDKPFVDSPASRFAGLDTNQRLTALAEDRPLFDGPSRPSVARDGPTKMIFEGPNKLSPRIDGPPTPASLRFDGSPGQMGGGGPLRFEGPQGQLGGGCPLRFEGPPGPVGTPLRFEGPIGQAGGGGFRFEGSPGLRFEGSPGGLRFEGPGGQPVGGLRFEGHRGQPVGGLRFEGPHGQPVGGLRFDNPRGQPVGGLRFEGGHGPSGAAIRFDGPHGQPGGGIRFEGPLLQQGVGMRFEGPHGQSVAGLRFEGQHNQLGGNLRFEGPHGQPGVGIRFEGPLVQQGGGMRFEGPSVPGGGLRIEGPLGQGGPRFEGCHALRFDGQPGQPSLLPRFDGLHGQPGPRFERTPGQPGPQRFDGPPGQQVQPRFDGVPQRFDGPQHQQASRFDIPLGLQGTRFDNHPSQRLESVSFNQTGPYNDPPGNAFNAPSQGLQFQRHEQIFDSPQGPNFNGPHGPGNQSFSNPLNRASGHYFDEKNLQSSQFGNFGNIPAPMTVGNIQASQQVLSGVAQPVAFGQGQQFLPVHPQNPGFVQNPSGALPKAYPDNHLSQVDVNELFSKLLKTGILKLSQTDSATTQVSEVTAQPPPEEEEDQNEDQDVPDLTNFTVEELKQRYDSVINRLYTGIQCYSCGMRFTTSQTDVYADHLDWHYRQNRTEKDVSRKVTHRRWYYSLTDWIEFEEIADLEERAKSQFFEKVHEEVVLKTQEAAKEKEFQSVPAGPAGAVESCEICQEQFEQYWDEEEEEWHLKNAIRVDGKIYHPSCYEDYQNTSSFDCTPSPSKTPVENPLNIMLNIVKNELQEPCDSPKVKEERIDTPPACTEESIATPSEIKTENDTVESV

Regarding SV40 late RNA, the figures for the K half (in the series with hClp1 (human); in series [1]) were 140 nM and 0.4 nM, respectively.

With L3 RNA, in series [1], the K half came out at 0.9 nM.
